The results in this text go back to article PMC12008863 (Journal of Translational Medicine, 2025).

As usually defined, the Kd is the equilibrium constant for the complex coming apart.

Assay [1] has as its target T1, Transthyretin (human, amino acids 21-147, recombinant) (human, UniProt P02766 21-147). Kind of assay: Langmuir equilibrium adsorption.
Assay [2] concerns the target T1, Transthyretin (human, amino acids …). Kind of assay: SPR. For orientation: SPR reads the build-up and loss of mass on a sensor chip optically.

B1: Heterogeneous nuclear ribonucleoprotein A2B1 (human, amino acids 12-195, recombinant) (domain or fragment)
chain: RKKREKEQFRKLFIGGLSFETTEESLRNYYEQWGKLTDCVVMRDPASKRSRGFGFVTFSSMAEVDAAMAARPHSIDGRVVEPKRAVAREESGKPGAHVTVKKLFVGGIKEDTEEHHLRDYFEEYGKIDTIEIITDRQSGKKRGFGFVTFDDHDPVDKIVLQKYHTINGHNAEVRKALSRQEMQE
As to B1, the dissociation constant (Kd) in assay [1] came to 7.13 µM; in assay [2] it was 3.68 µM.
